Test results: patent US20090291088A1 (Biogen, published 2009)

Key:
Experiment in all cases: SPR, M13-C06 Fab over captured mutant
[1] = molecular target: T1, hIGF-1R-Fc mutant SD002 (M156A) (human, UniProt P08069 31-933)
T1 construct: not shown: C-terminal human IgG1-Fc tag
Experimental: (§1) After, completion of the receptor-Fc loading step, flow rates were elevated to 5 μl/min. […] At the end of each sensorgram, the flow rate was elevated to 30 μl/min and the chip surface was regenerated by 2×10 μL injections of 0.1 M glycine, pH 2.

[2] = molecular target: T2, hIGF-1R-Fc mutant SD004 (S210H_A211Q) (human, UniProt P08069 31-933)
T2 construct: not shown: C-terminal human IgG1-Fc tag
Experimental: as §1

[3] = molecular target: T3, hIGF-1R-Fc mutant SD006 (A227K) (human, UniProt P08069 31-933)
T3 construct: also called SD0006; not shown: C-terminal human IgG1-Fc tag
Experimental: as §1

[4] = molecular target: T4, hIGF-1R-Fc mutant SD008 (S257F) (human, UniProt P08069 31-933)
T4 construct: not shown: C-terminal human IgG1-Fc tag
Experimental: as §1

[5] = molecular target: T5, hIGF-1R-Fc mutant SD009 (E264K) (human, UniProt P08069 31-933)
T5 construct: not shown: C-terminal human IgG1-Fc tag
Experimental: as §1

[6] = molecular target: T6, hIGF-1R-Fc mutant SD011 (G285S_S286T) (human, UniProt P08069 31-933)
T6 construct: not shown: C-terminal human IgG1-Fc tag
Experimental: as §1

[7] = molecular target: T7, hIGF-1R-Fc mutant SD013 (D405K) (human, UniProt P08069 31-933)
T7 construct: not shown: C-terminal human IgG1-Fc tag
Experimental: as §1

[8] = molecular target: T8, hIGF-1R-Fc mutant SD014 (K412A_A413Q) (human, UniProt P08069 31-933)
T8 construct: not shown: C-terminal human IgG1-Fc tag
Experimental: as §1

[9] = molecular target: T9, hIGF-1R-Fc mutant SD016 (D531Q_V532N) (human, UniProt P08069 31-933)
T9 construct: not shown: C-terminal human IgG1-Fc tag
Experimental: as §1

[10] = molecular target: T10, hIGF-1R-Fc mutant SD018 (E665A) (human, UniProt P08069 31-933)
T10 construct: not shown: C-terminal human IgG1-Fc tag
Experimental: as §1

[11] = molecular target: T11, hIGF-1R-Fc mutant SD019 (E739W, L741F) (human, UniProt P08069 31-933)
T11 construct: not shown: C-terminal human IgG1-Fc tag
Experimental: as §1

B1: M13-C06 Fab (Fab, V domains shown)
VH: EVQLLESGGGLVQPGGSLRLSCAASGFTFSIYRMQWVRQAPGKGLEWVSGISPSGGTTWYADSVKGRFTISRDNSKNTLYLQMNSLRAEDTAVYYCARWSGGSGYAFDIWGQGTMVTVSS
VL: DIQMTQSPLSLSASVGDRVTITCQASRDIRNYLNWYQQKPGKAPKLLIYDASSLQTGVPSRFGGSGSGTDFSFTIGSLQPEDIATYYCQQFDSLPHTFGQGTKLEIK
notes: Human Fab from a phage library, kappa light chain
- Biacore Relative RUmax [1]: 1.2
- Biacore Relative RUmax [2]: 0.8
- Biacore Relative RUmax [3]: 1.7
- Biacore Relative RUmax [4]: 1.5
- Biacore Relative RUmax [5]: 0.6
- Biacore Relative RUmax [6]: 1.8
- Biacore Relative RUmax [7]: 0.7
- Biacore Relative RUmax [8]: 0.6
- Biacore Relative RUmax [9]: 2
- Biacore Relative RUmax [10]: 1.7
- Biacore Relative RUmax [11]: 1.9
